Test results taken from PMC3439350.
pKd: −log10 of the molar value.

Target: yAsf1*^532 (full-length yeast Asf1, residues 1 to 279, labeled at position -1 with Alexa Fluor 532) (S. cerevisiae) (UniProt P32447)
Assay: other fluorescence titration; fluorescence quenching: unlabeled histones titrated into 1 nM yAsf1*^532; 20°C; 150 mM KCl, 2 mM MgCl2, 10 mM Tris-HCl pH 7.5, 1% glycerol, 0.05% Brij-35, 0.5 mM TCEP; ligand-depleted binding model

pKd: 9.40
Substance: H3/H4^∆94 (Xenopus laevis, H3 C110A and H4 T71C Δ94-102) (from UniProt P84233 1-136; P62799 1-94) (complex)
